For one assay, the target named is T1, mouse PMEL17 (mouse, UniProt Q60696 24-626).
T1 construct: whole, on cells; also called B16-F10 (mouse)
T1 sequence (looked up): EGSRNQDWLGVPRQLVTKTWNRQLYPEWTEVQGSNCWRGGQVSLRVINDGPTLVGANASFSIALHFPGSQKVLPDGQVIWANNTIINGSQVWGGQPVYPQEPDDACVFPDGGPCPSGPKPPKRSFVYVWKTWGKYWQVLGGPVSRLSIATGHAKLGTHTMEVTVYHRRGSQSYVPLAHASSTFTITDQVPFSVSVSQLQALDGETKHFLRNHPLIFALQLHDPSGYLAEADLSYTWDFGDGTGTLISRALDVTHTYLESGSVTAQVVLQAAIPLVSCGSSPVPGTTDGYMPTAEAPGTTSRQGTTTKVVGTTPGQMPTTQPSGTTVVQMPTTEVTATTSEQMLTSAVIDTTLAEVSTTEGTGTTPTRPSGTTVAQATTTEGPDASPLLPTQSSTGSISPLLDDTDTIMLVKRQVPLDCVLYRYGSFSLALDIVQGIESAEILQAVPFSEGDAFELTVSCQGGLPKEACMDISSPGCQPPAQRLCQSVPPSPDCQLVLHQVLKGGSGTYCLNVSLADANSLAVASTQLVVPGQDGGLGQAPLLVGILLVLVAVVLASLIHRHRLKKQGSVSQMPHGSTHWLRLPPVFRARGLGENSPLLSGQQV
The assay can be described thus: FACS titration of IgG on B16-F10 cells (mouse melanoma), Alexa Fluor detection antibody. As to the method: (§1) Purified IgGs were titrated on a variety of PMEL17 expressing and PMEL17 non expressing cell lines (for control) to determine EC50 values. Cells were harvested using Accutase, adjusted to ˜4×10^6 cells/ml into FACS buffer (PBS, 3% FCS and 0.02% Na-Azide) and kept on ice to avoid internalization. 15 μl of cell suspension/well were transferred into 384 well V-bottom plates (Greiner, Cat #781280) and incubated with 15 μl of IgGs at different concentrations (most commonly from 200 to 3.5×10-3 nM) for 1 hour at 4° C., gently shaking. Following incubation, cells were washed three times with FACS buffer. After each washing step, cells were centrifuged (250×g, 5 min, 4° C.) and carefully resuspended. 15 p of detection antibody conjugated to PE (PE-conjugated goat anti-human IgG, F(ab′)₂ fragment specific, 1:150 in FACS buffer; Jackson Immuno Research, #109-116-097) or Alexa Fluor (Alexa Fluor-conjugated goat anti-human IgG, F(ab′)2 fragment specific, 1:150 in FACS buffer; Jackson Immuno Research, #109-606-097) were added and samples were incubated for 45 minutes to 1 hour on ice in the dark, gently shaking. After 3 washing steps, cells were resuspended in 30 μl of FACS buffer and samples were measured using the IntelliCyt HTFC device. EC50 values were calculated using the Graphpad Prism software.

The target in a further assay is rat PMEL17 (rat, UniProt D3ZED8 73-680). Nature of the assay: FACS titration of IgG on HKB11-rat PMEL17 cells, Alexa Fluor detection antibody. As to the method: as §1
Another assay deals with T2, cyno PMEL17 (cyno, UniProt A0A2K5WWN0 25-668).
T2 construct: whole, on cells; also called HKB11-cyno; HKB11-cyno-PMEL17
T2 sequence: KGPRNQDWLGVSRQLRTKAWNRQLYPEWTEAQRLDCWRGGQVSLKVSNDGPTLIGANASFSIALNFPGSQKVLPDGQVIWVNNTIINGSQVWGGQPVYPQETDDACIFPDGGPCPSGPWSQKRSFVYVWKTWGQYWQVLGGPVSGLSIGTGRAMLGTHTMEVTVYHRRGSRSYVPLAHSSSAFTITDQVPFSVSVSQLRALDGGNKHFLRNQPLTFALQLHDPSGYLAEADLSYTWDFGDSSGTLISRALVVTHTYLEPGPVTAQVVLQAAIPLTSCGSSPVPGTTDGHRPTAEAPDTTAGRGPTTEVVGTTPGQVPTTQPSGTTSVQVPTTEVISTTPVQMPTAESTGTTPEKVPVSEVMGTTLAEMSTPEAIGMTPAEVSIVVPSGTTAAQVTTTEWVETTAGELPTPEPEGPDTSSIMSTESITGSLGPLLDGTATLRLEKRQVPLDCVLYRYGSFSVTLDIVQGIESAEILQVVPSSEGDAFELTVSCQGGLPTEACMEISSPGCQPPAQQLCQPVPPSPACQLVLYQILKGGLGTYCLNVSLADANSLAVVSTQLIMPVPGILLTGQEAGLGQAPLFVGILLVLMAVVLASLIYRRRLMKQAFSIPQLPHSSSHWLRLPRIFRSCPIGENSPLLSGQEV
Nature of the assay: FACS titration of IgG on HKB11-cyno-PMEL17 cells, Alexa Fluor detection antibody. As to the method: as §1

Chain of rat PMEL17 (D3ZED8 entry or part of it): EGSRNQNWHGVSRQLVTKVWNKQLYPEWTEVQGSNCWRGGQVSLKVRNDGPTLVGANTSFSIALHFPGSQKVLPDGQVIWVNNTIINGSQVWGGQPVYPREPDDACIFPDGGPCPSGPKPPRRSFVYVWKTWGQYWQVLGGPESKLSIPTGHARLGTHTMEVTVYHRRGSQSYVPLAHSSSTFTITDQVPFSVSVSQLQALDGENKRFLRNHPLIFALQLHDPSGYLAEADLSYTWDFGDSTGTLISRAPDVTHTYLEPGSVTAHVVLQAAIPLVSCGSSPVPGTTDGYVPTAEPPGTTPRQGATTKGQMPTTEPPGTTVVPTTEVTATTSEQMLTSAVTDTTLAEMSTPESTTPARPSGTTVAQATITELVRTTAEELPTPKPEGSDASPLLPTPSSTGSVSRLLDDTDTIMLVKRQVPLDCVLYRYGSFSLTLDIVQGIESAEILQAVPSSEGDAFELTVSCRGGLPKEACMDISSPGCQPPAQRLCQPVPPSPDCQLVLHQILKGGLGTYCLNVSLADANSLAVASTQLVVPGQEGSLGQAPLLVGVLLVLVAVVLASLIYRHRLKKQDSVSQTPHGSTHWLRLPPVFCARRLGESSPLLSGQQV

B1: Y010356 (antibody, V domains shown)
VH: EVQLVESGGGLVKPGGSLRLSCAASGFTFSNYWISWVRQAPGKGLEWVGRIKSKTYGGTTDYAEPVKGRFTISRDDSKNTLYLQMNSLKTEDTAVYYCARVSGYYSHSGGFDVWGQGTLVTVSS
VL: DIQMTQSPSSLSASVGDRVTITCRASQGISNYLAWYQQKPGKVPKLLIYAASTLQSGVPSRFSGSGSGTDFTLTISSLQPEDVATYYCQKTWRTPGTFGQGTKVEIK
notes: Tested as purified human IgG
B1: the EC50 in the assay with mouse PMEL17 is 1.4 nM; with rat PMEL17, 1.4 nM; with cyno PMEL17, 4.5 nM.

B2: MOR024353 (antibody, V domains shown)
VH: QVQLVQSGAEVKKPGSSVKVSCKASGGTFSDYAISWVRQAPGQGLEWMGGIIPIFGDANYAQKFQGRVTITADESTSTAYMELSSLRSEDTAVYYCAREGSSYFYMAYWGQGTLVTVSS
VL: SYELTQPLSVSVALGQTARITCSGDNIGSKLASWYQQKPGQAPVLVIYDDSNRPSGIPERFSGSNSGNTATLTISRAQAGDEADYYCAATAGDRWAYVFGGGTKLTVL
notes: Tested as purified human IgG
Take B2: the 50% effective concentration (EC50) with rat PMEL17 was determined as 7.5 nM; with cyno PMEL17, 1.6 nM.

B3: Y010906 (antibody, V domains shown)
VH: EVQLVESGGGLVKPGGSLRLSCAASGFTFSNAWMSWVRQAPGKGLEWVGRIKSKTDAGTTDYAAPVKGRFTISRDDSKNTLYLQMNSLKTEDTAVYYCARDEYPWGWFDVWGQGTLVTVSS
VL: DIQMTQSPSSVSASVGDRVTITCRASQGISSWLAWYQQKPGKAPKLLIYAASSLQSGVPSRFSGSGSGTDFTLTISSLQPEDFATYYCQQYIFYPLTFGQGTKVEIK
notes: Tested as purified human IgG
With B3, the EC50 with mouse PMEL17 amounted to 140 nM; with rat PMEL17, 21.7 nM; with cyno PMEL17, 2 nM.

B4: Y010900 (antibody, V domains shown)
VH: EVQLVESGGGLVKPGGSLRLSCAASGFTFSNAWMSWVRQAPGKGLEWVGRIKSKTDAGTTDYAAPVKGRFTISRDDSKNTLYLQMNSLKTEDTAVYYCARTIYPSAPSSSLDYWGQGTLVTVSS
VL: DIQMTQSPSSLSASVGDRVTITCRASQGISNYLAWYQQKPGKVPKLLIYAASTLQSGVPSRFSGSGSGTDFTLTISSLQPEDVATYYCQQLIFFPLTFGQGTKVEIK
notes: Tested as purified human IgG
With B4, the values for the EC50 with rat PMEL17 and with cyno PMEL17 were 9.3 nM and 1.2 nM, respectively.

B5: Y010417 (antibody, V domains shown)
VH: EVQLVQSGAEVKKPGESLKISCKGSGYSFTSYWIGWVRQMPGKGLEWMGIIYPGDSDTRYSPSFQGQVTISADKSISTAYLQWSSLKASDTAMYYCARGSSAASGLSGDLWGQGTLVTVSS
VL: DIQMTQSPSSLSASVGDRVTITCRASQSISSYLNWYQQKPGKAPKLLIYAASSLQSGVPSRFSGSGSGTDFTLTISSLQPEDFATYYCQQDYYSPFTFGQGTKVEIK
notes: Tested as purified human IgG
In the assay with cyno PMEL17, B5 registered an EC50 of 6.3 nM.

B6: Y010903 (antibody, V domains shown)
VH: EVQLVESGGGLVKPGGSLRLSCAASGFTFSNAWMSWVRQAPGKGLEWVGRIKSKTDAGTTDYAAPVKGRFTISRDDSKNTLYLQMNSLKTEDTAVYYCARASHRLHSLFDVWGQGTLVTVSS
VL: DIQMTQSPSTLSASVGDRVTITCRASQSISSWLAWYQQKPGKAPKLLIYDASSLESGVPSRFSGSGSGTEFTLTISSLQPEDFATYYCQQGLFYPHTFGQGTKVEIK
notes: Tested as purified human IgG
With B6, the EC50 was 928 nM with mouse PMEL17, 5.6 nM with rat PMEL17 and 2 nM with cyno PMEL17.

B7: Y010910 (antibody, V domains shown)
VH: EVQLVESGGGLVKPGGSLRLSCAASGFTFSNAWMSWVRQAPGKGLEWVGRIKSKTDAGTTDYAAPVKGRFTISRDDSKNTLYLQMNSLKTEDTAVYYCARVASPSAPGGFDYWGQGTLVTVSS
VL: DIQMTQSPSSLSASVGDRVTITCRASQGISNYLAWYQQKPGKVPKLLIYAASTLQSGVPSRFSGSGSGTDFTLTISSLQPEDVATYYCQQSLFAPFTFGQGTKVEIK
notes: Tested as purified human IgG
Consider B7, for which the results for the EC50 with mouse PMEL17, with rat PMEL17 and in the assay with cyno PMEL17 were 41.1 nM, 13.7 nM and 3.5 nM, respectively.

B8: Y010355 (antibody, V domains shown)
VH: EVQLVESGGGLVKPGGSLRLSCAASGFTFSNYWISWVRQAPGKGLEWVGRIKSKTYGGTTDYAEPVKGRFTISRDDSKNTLYLQMNSLKTEDTAVYYCARTSRRSYAFDYWGQGTLVTVSS
VL: DIQMTQSPSTLSASVGDRVTITCRASQSISSWLAWYQQKPGKAPKLLIYDASSLESGVPSRFSGSGSGTEFTLTISSLQPEDFATYYCQQITRYPVTFGQGTKVEIK
notes: Tested as purified human IgG
Take B8: the results for the EC50 with mouse PMEL17, with rat PMEL17 and with cyno PMEL17 were 0.8 nM, 0.8 nM and 3.9 nM, respectively.

B9: Y010415 (antibody, V domains shown)
VH: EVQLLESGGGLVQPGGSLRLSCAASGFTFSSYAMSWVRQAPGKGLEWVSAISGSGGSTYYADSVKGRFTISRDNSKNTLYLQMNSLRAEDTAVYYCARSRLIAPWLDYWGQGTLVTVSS
VL: DIQMTQSPSSLSASVGDRVTITCRASQSISSYLNWYQQKPGKAPKLLIYAASSLQSGVPSRFSGSGSGTDFTLTISSLQPEDFATYYCQQVYGSPPTFGQGTKVEIK
notes: Tested as purified human IgG
With B9, the values for the EC50 in the assay with rat PMEL17 and with cyno PMEL17 were 0.4 nM and 5.4 nM, respectively.

B10: Y010429 (antibody, V domains shown)
VH: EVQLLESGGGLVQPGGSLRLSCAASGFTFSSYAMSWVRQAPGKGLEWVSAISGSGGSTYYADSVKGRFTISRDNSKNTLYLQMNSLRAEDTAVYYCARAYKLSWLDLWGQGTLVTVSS
VL: DIQMTQSPSSLSASVGDRVTITCRASQSISSYLNWYQQKPGKAPKLLIYAASSLQSGVPSRFSGSGSGTDFTLTISSLQPEDFATYYCQQVWYAPVTFGQGTKVEIK
notes: Tested as purified human IgG
As to B10, the EC50 with mouse PMEL17 turned out to be 60.2 nM; with rat PMEL17, 1.5 nM; with cyno PMEL17, 10.7 nM.

B11: MOR024354 (antibody, V domains shown)
VH: QVQLLESGGGLVQPGGSLRLSCAASGFTFSSFGMSWVRQAPGKGLEWVSAISYSGSDTYYADSVKGRFTISRDNSKNTLYLQMNSLRAEDTAVYYCARDVGVMDYWGQGTLVTVSS
VL: SYELTQPLSVSVALGQTARITCSGDNLGTYYAHWYQQKPGQAPVLVIYSQSHRPSGIPERFSGSNSGNTATLTISRAQAGDEADYYCGAWDAPSPELVFGGGTKLTVL
notes: Tested as purified human IgG
For the molecule B11, the EC50 in the assay with rat PMEL17 was 2.4 nM; with cyno PMEL17 it was 2.1 nM.

As a reminder, the EC50 is the concentration giving half of the maximal effect.

(Values after patent publication US20240189439A1 (Novartis, published 2024).)
